Results as given in the RNAGym collection of RNA variant scans (doi:10.1073/pnas.2313332121).

B1: TPR t1 (parent)
chain: GACCAAUCUGCCCUCAGAGCUCGAGAACAUCUUCGGAUGCAGAGGAGGCAGGCUUCGGUGGCGCGAUAGCGCCAACGUCCUCAACCUCCAAUGCAUCCCACCACAUGAUGAUGCCUGAAGAGCCUUGGUUUUUUG

Variants of: B1
Test: polymerase ribozyme fitness, log enrichment relative to wild type (log ratio); higher = more active; in vitro selection for triplet polymerase activity
Outline: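 In triplicate, a single round of in vitro selection was run on each mutant library, PCR-built and transcribed, covering one subunit of a heterodimeric triplet polymerase ribozyme. Frozen incubation at −7 °C followed annealing with a biotinylated primer, partner subunit and triplets, and extended constructs were then gel-excised, streptavidin-captured and taken through RT-PCR. Fitness is the logarithm of genotype enrichment over wild-type enrichment, from inverse-variance-weighted replicate averages of Illumina-sequenced inputs and outputs. […] only genotypes with ≥10 input reads and ≥1 read per output were kept.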

First: A6U G63U U78C C97U G120C
Second: U7A C13G U32C U38G G63C
The “polymerase ribozyme fitness (log ratio)” value of the first is lower: -3.08 for the first, -2.61 for the second.

Compared with A6C A29U G52U C53U G63U G120A C123U, U7C C11A G45C G58A A121C is higher in “polymerase ribozyme fitness (log ratio)” value: -3.79 for the first, 0.57 for the second.

Compared with A6U C28G G58A A100U, A6G G10A is higher in “polymerase ribozyme fitness (log ratio)” value: -3.49 for the first, 0.127 for the second.

Compared with U7A G69C A95G, A6C C15U C34A G39C is lower in “polymerase ribozyme fitness (log ratio)” value: -0.796 for the first, -5.02 for the second.

Going from A6G C31A G42U C53U A95U C101U C114U U126A to A6U A41G A91G, the “polymerase ribozyme fitness (log ratio)” value rises from -5.71 to -2.5.

Compared with U7C A16G A29U G63U C97U U109A, A6U C8A G52U C53A C72A U92A C101A U130G is lower in “polymerase ribozyme fitness (log ratio)” value: -1.24 for the first, -5.85 for the second.

Going from A6G C79U C88G C104U to A6U A27G C79U A111C, the “polymerase ribozyme fitness (log ratio)” value falls from -1.13 to -4.62.

First: A6U U9C G47A G69A
Second: U7C C85G U87C
The “polymerase ribozyme fitness (log ratio)” value of the first is lower: -2.93 for the first, -1.57 for the second.

Compared with U7C G61U, A6U A16C is lower in “polymerase ribozyme fitness (log ratio)” value: 0.179 for the first, -2.44 for the second.

First: U7C C53G C56A G60A A111G
Second: A6U U30C G93U G120U
The “polymerase ribozyme fitness (log ratio)” value of the first is higher: 0.682 for the first, -3.6 for the second.

Compared with A6G C40G U59A A103U, U7C C8G C62U G93U A95C is higher in “polymerase ribozyme fitness (log ratio)” value: -6.42 for the first, -0.906 for the second.

First: U7A U21A G61C C114G
Second: U7C C20A G39C G61A
The “polymerase ribozyme fitness (log ratio)” value of the first is lower: -5.5 for the first, -3.85 for the second.

First: A6C G61C U92C
Second: A6C U30C G69A
The “polymerase ribozyme fitness (log ratio)” value of the first is higher: -4.76 for the first, -5.82 for the second.

Compared with A6C C8A U87A, A6G U112A U125G U129A is lower in “polymerase ribozyme fitness (log ratio)” value: 0.391 for the first, -1.7 for the second.

Compared with A6U G36C A37G A43G, U7G A16C is higher in “polymerase ribozyme fitness (log ratio)” value: -2.57 for the first, -1.37 for the second.

First: U7C A18C U78C C82U
Second: U7C C49U A50C G60U G127A
The “polymerase ribozyme fitness (log ratio)” value of the first is lower: -1.52 for the first, -0.326 for the second.

First: A6U G48A A68G C123A
Second: A6G U7G A18C G48U C53A G63A C115A
The “polymerase ribozyme fitness (log ratio)” value of the first is lower: -2.21 for the first, -1.55 for the second.

Compared with U7A C11A U14G G45U C53U C70A G113A G120U U133A, A6C G57C C72U is higher in “polymerase ribozyme fitness (log ratio)” value: -4.43 for the first, -0.529 for the second.

Going from A6G C8G C11U C22U C79U to A6U A26U C34A A43U A121C, the “polymerase ribozyme fitness (log ratio)” value falls from -3.56 to -7.38.

Going from A6C G52A C79U U87A to A6U C15A A37C C40G C80U U96G, the “polymerase ribozyme fitness (log ratio)” value falls from -0.58 to -2.51.

Going from U7A U38G C49A to A6C C85G U92A U112G, the “polymerase ribozyme fitness (log ratio)” value falls from -0.102 to -6.59.

Compared with A6U U7C C70A C76G, U7A C15A A41C A66C is lower in “polymerase ribozyme fitness (log ratio)” value: -2.57 for the first, -4.5 for the second.

First: U7A G42A C86U
Second: A6U G60A C82G C101U G120A G128U
The “polymerase ribozyme fitness (log ratio)” value of the first is higher: -1.98 for the first, -2.36 for the second.

First: U7C C31A A119G U133A
Second: U7C G10A C11G G93U
The “polymerase ribozyme fitness (log ratio)” value of the first is lower: -6.12 for the first, -1.34 for the second.

Compared with A6G G44C C49G, U7C C49A G61U A83C U129C is higher in “polymerase ribozyme fitness (log ratio)” value: -1.68 for the first, -0.315 for the second.

First: A6U C11U C124G
Second: A6G C72G C89U
The “polymerase ribozyme fitness (log ratio)” value of the first is higher: 1.11 for the first, -0.661 for the second.

First: A6G U14G G58A C70U
Second: A6U C12U G110U
The “polymerase ribozyme fitness (log ratio)” value of the first is higher: -1.12 for the first, -1.97 for the second.

Compared with U7A G10C U21A C56U, A6G C85U G113A is lower in “polymerase ribozyme fitness (log ratio)” value: -2.02 for the first, -2.51 for the second.

First: A6C A41U A43G G57U U130G
Second: A6G A111U
The “polymerase ribozyme fitness (log ratio)” value of the first is lower: -3.78 for the first, -2.51 for the second.

Compared with U7A G57A, A6C U7A A27G U78C G113A is lower in “polymerase ribozyme fitness (log ratio)” value: -0.474 for the first, -1.35 for the second.

Compared with U7A G17U G52C C64U C123G, U7A C11A C101U G122U is higher in “polymerase ribozyme fitness (log ratio)” value: -1.52 for the first, 0.139 for the second.

Compared with A6G U96A C102A U129A, A6U C15G G61A is higher in “polymerase ribozyme fitness (log ratio)” value: -5.24 for the first, -1.82 for the second.

Going from U7A C12U G113C to A6G C56G G69A C79A, the “polymerase ribozyme fitness (log ratio)” value falls from -2.14 to -5.03.

First: A6U C15U C31G G51A U54A C73U C115U
Second: A6G A46U U54G
The “polymerase ribozyme fitness (log ratio)” value of the first is lower: -5.8 for the first, -1.68 for the second.

First: U7C A83G A84C
Second: U7C G69C A90G G113C
The “polymerase ribozyme fitness (log ratio)” value of the first is higher: -1.08 for the first, -3.11 for the second.

Going from A6U C53G C82A A83G to A6U C53A G63U A100U, the “polymerase ribozyme fitness (log ratio)” value falls from -0.829 to -3.98.

Compared with U7A C12G C40G U106C C114G, U7C U96C C102A A108U C114U is lower in “polymerase ribozyme fitness (log ratio)” value: -5.02 for the first, -5.22 for the second.

Compared with U7C C62U, U7C C22A C82A C89U is lower in “polymerase ribozyme fitness (log ratio)” value: -1.11 for the first, -4.93 for the second.

First: U7C U14C A29G G71C G113U
Second: A6U C53G
The “polymerase ribozyme fitness (log ratio)” value of the first is lower: -4.94 for the first, -0.289 for the second.

Compared with A6U C72U U96C G117U, U7C A91U C94G is higher in “polymerase ribozyme fitness (log ratio)” value: -3.88 for the first, -2.67 for the second.

Going from U7C G93A to A6U A50C, the “polymerase ribozyme fitness (log ratio)” value rises from -1.65 to 0.0675.

With U7C A27U C79U the “polymerase ribozyme fitness (log ratio)” value was -3.22.
